Measured values published in publication PMC10300371, “Categorization of Escherichia coli outer membrane proteins by dependence on accessory proteins of the β-barrel assembly machinery complex” (The Journal of Biological Chemistry, 2023).

B1: OmpC (natural protein, E. coli, UniProt P06996 22-367, looked up)
chain: AEVYNKDGNKLDLYGKVDGLHYFSDNKDVDGDQTYMRLGFKGETQVTDQLTGYGQWEYQIQGNSAENENNSWTRVAFAGLKFQDVGSFDYGRNYGVVYDVTSWTDVLPEFGGDTYGSDNFMQQRGNGFATYRNTDFFGLVDGLNFAVQYQGKNGNPSGEGFTSGVTNNGRDALRQNGDGVGGSITYDYEGFGIGGAISSSKRTDAQNTAAYIGNGDRAETYTGGLKYDANNIYLAAQYTQTYNATRVGSLGWANKAQNFEAVAQYQFDFGLRPSLAYLQSKGKNLGRGYDDEDILKYVDVGATYYFNKNMSTYVDYKINLLDDNQFTRDAGINTDNIVALGLVYQF
modifications: 35S-methionine and 35S-cysteine (radiolabel)
notes: Made as a monomer and seen as a trimer after assembly into EMM; also called 35S-labeled OmpC; major porin; source: in vitro translated, rabbit reticulocyte lysate (Promega), 35S-labelled; assembled into EMM
B2: OmpF (natural protein, E. coli, UniProt P02931 23-362, looked up)
chain: AEIYNKDGNKVDLYGKAVGLHYFSKGNGENSYGGNGDMTYARLGFKGETQINSDLTGYGQWEYNFQGNNSEGADAQTGNKTRLAFAGLKYADVGSFDYGRNYGVVYDALGYTDMLPEFGGDTAYSDDFFVGRVGGVATYRNSNFFGLVDGLNFAVQYLGKNERDTARRSNGDGVGGSISYEYEGFGIVGAYGAADRTNLQEAQPLGNGKKAEQWATGLKYDANNIYLAANYGETRNATPITNKFTNTSGFANKTQDVLLVAQYQFDFGLRPSIAYTKSKAKDVEGIGDVDLVNYFEVGATYYFNKNMSTYVDYIINQIDSDNKLGVGSDDTVAVGIVYQF
modifications: 35S-methionine and 35S-cysteine (radiolabel)
notes: Made as a monomer and seen as a trimer after assembly into EMM; also called 35S-labeled OmpF; major porin; source: in vitro translated, rabbit reticulocyte lysate (Promega), 35S-labelled; assembled into EMM
B3: LamB (natural protein, E. coli, UniProt P02943 26-446, looked up)
chain: VDFHGYARSGIGWTGSGGEQQCFQTTGAQSKYRLGNECETYAELKLGQEVWKEGDKSFYFDTNVAYSVAQQNDWEATDPAFREANVQGKNLIEWLPGSTIWAGKRFYQRHDVHMIDFYYWDISGPGAGLENIDVGFGKLSLAATRSSEAGGSSSFASNNIYDYTNETANDVFDVRLAQMEINPGGTLELGVDYGRANLRDNYRLVDGASKDGWLFTAEHTQSVLKGFNKFVVQYATDSMTSQGKGLSQGSGVAFDNEKFAYNINNNGHMLRILDHGAISMGDNWDMMYVGMYQDINWDNDNGTKWWTVGIRPMYKWTPIMSTVMEIGYDNVESQRTGDKNNQYKITLAQQWQAGDSIWSRPAIRVFATYAKWDEKWGYDYTGNADNNANFGKAVPADFNGGSFGRGDSDEWTFGAQMEIWW
modifications: 35S-methionine and 35S-cysteine (radiolabel)
notes: Made as a monomer and seen as a trimer after assembly into EMM; also called 35S-labeled LamB; maltoporin; source: in vitro translated, rabbit reticulocyte lysate (Promega), 35S-labelled; assembled into EMM

Biological target: the molecule itself
Test: native gel or EMSA; 35S-labelled protein incubated with EMM at 30 °C for 10 to 90 min, EMM solubilised in 1.5% DDM, BN-PAGE and radioimaging; monomer to trimer

Stoichiometry N, 3:
B1
B2
B3
